Data published in PMC5318940.

Tests used:
[1] = biological target: histone H2A (bovine (calf thymus)) (UniProt P0C0S9)
[2] = biological target: M1 protein on the surface of live GAS M1T1 5448 wild type (group A Streptococcus (endogenous in strain M1T1 5448)) (UniProt Q99XV0); assay: immunogold transmission electron microscopy; bacteria with 31.25 μg/mL histone H2A, 30 min at 37 °C, washed, fixed with 2% PFA; anti-histone H2A antibody and 15 nm immunogold secondary antibody; particles counted on >20 bacteria

Substance | histone MIC for the GAS Δemm1 mutant with exogenous 10 μM recombinant NT fragment (rNT) [1] [fold] | gold particles per bacterium (gold-particles per bacterium) [2]
M1 protein fragment A+B (residues 42-194), recombinant NT fragment (from UniProt Q99XV0 42-194) (domain or fragment) | 2 | 
histone H2A (from UniProt P0C0S9 1-130) (natural protein) |  | > 30
